Consider nine molecules from US20170190775A1 (published 2017).

Positions count from the first letter of the chain named. Names and notes keep the numbering of the source.

The target in assay [1] is T1, cynomolgus TREM-1 (cTREM-1) protein (cynomolgus monkey).
T1 construct: also called cyno TREM-1
T1 chain: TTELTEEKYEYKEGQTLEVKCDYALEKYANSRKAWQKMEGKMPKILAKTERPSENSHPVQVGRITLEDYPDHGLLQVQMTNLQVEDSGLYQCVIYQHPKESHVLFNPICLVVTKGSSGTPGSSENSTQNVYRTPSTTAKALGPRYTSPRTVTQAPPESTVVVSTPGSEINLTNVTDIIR
Put plainly: SPR, mAb captured by anti-Fc, cTREM-1 as analyte. As to the method: Binding studies were performed on a ProteOn Analyzer (BioRad) that measures molecular interactions in real time through surface plasmon resonance. Experiments were run at 25° C. and the samples were stored at 15° C. in the sample compartment. The signal (RU, response units) reported by the ProteOn is directly correlated to the mass on the individual sensor chip surfaces in six parallel flow cells. Anti-human Fc monoclonal or anti-murine Fc polyclonal antibody from Biacore human or mouse Fc capture kits were immobilized in horizontal direction onto flow cells of a GLM sensor chip according to the manufacturer's instructions. The final immobilization level of capture antibody was approximately 2600-6000 RU in different experiments. […] Binding of hTREM-1 or cTREM-1 proteins was conducted by injecting analyte (antigen) over all flow cells in horizontal direction to allow for comparative analyses of binding to different captured anti-TREM-1 antibodies relative to binding to the reference interspot. hTREM-1 or cTREM-1 proteins was diluted serially 1:3 to 1.2-100 nM or into running buffer, injected at 100 μl/min for 250 s and allowed to dissociate for 600s. The GLM surface was regenerated after each injection cycle of analyte via two 18 s injections of 10 mM Glycine, pH 1.7 and 50 mM NaOH at 100 μl/min. This regeneration step removed the anti-TREM-1 antibody and any bound TREM-1 protein from the immobilized capture antibody surface, and allowed for the subsequent binding of the next interaction sample pair.
For orientation: Surface plasmon resonance follows binding to a sensor surface in real time, without labels.

Assay [2] addresses T1, cynomolgus TREM-1 (cTREM-1) protein. Put plainly: SPR, mAb captured by anti-Fc, cTREM-1 as analyte (Example 11). As to the method:
Binding studies were performed on a ProteOn Analyzer (BioRad) that measures molecular interactions in real time through surface plasmon resonance. Experiments were run at 25° C. and the samples were stored at 15° C. in the sample compartment. The signal (RU, response units) reported by the ProteOn is directly correlated to the mass on the individual sensor chip surfaces in six parallel flow cells.
Anti-human Fc monoclonal or anti-murine Fc polyclonal antibody from Biacore human or mouse Fc capture kits were immobilized in horizontal direction onto flow cells of a GLM sensor chip according to the manufacturer's instructions. The final immobilization level of capture antibody was approximately 2600-6000 RU in different experiments. […] This regeneration step removed the anti-TREM-1 antibody and any bound TREM-1 protein from the immobilized capture antibody surface, and allowed for the subsequent binding of the next interaction sample pair.

The target in assay [3] is T2, cTREM-1 construct, residues M1-R180 of SEQ ID NO: 12 with six histidine residues at the C-terminus (cynomolgus monkey).
T2 chain: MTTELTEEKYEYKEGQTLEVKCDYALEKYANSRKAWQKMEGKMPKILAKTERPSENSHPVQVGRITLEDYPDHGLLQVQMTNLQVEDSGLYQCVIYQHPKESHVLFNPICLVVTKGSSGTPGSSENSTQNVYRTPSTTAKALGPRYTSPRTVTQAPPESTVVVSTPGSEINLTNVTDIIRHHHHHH
Put plainly: HX-MS.
Method: Non-deuterated controls were prepared by diluting into protiated hepes buffer. The hydrogen exchange experiments were performed on a waters HDX nanoAcquity ultra-high performance liquid chromatography (UPLC) system (Waters Corporation, Milford, Mass., USA) which included the HD-x PAL auto sampler (LEAP Technologies Inc., Carrboro, N.C., USA) for automated sample preparation. The LC tubing, pre- and analytical columns and switching valves were located in a chamber cooled to 0.3° C. The trypsin digestion column was stored at 15° C. Hydrogen exchange reactions were performed at 20° C. Mass analysis was performed online using a Waters SYNAPT G2 HDMS mass spectrometer.
The mass spectrometer was operated in positive ion mode with ion mobility separation enabled. […] Deuterated samples were analysed using the 6 V low energy trap collision offset only.
The MS^E-data was analysed using Waters ProteinLynx Global Server 2.5 and peptides of hTREM-1 were identified that covered 80% of the protein sequence (Table 3) and peptides of cTREM-1 were identified that covered 100% of the protein sequence (Table 4). The HX-MS data files were analysed using Waters DynamX 1.0 that automatically applies lock-mass correction and determines the degree of deuterium incorporation in each peptide. […]

The target of assay [4] is T3, full length cynomolgus monkey (c)TREM-1 on cells (cynomolgus monkey).
T3 construct: also called cynoTREM-1; cTREM-1 reporter cell
T3 chain: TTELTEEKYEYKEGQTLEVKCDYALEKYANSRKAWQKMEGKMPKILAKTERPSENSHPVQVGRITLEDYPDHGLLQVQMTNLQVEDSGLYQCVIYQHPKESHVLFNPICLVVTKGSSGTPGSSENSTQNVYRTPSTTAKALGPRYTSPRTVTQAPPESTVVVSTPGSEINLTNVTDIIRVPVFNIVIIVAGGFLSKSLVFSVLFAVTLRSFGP
Put plainly: binding to cynomolgus monkey PBMCs, FIG. 6A.

Assay [5] has as its target T3, full length cynomolgus monkey (c)TREM-1 …. Put plainly: binding to cynomolgus monkey PBMCs, FIG. 6B.

As a reminder, the Kd is the concentration at which binding is half-saturated.

B1: mAb 0122 (antibody, human IgG4 S228P, kappa, V domains shown)
VH: EVQLVESGGGLVQPGGSLKLSCAASGFTFSTYAMHWVRQASGKGLEWVGRIRTKSSNYATYYAASVKGRFTISRDDSKNTAYLQMNSLKTEDTAVYYCTRDMGQRRQFAYWGQGTLVTVSS
VL: DIVLTQSPDSLAVSLGERATINCRASESVDTFDYSFLHWYQQKPGQPPKLLIYRASNLESGVPDRFSGSGSGTDFTLTISSLQAEDVAVYYCQQSNEDPYTFGQGTKLEIKR
notes: Second humanised TREM-1 antibody; also called 14F113/14F69 hz variant LC M4L
The molecule B1 yielded a dissociation constant (Kd) in assay [1] of 0.97 nM.

B2: mAb 0124 (antibody, V domains shown)
VH: B1 VH
VL: DIVMTQSPDSLAVSLGERATINCRASESVDTFDYSFLHWYQQKPGQPPKLLIYRASNLESGVPDRFSGSGSRTDFTLTISSLQAEDVAVYYCQQSNEDPYTFGQGTKLEIK
notes: Recombinant; LC G68R (Kabat) in CDR grafted 14F113; also called 14F113/14F69 hz variant LC G68R; 14F113 hz variant LC G68R
Turning to B2, the Kd in assay [1] turned out to be 1.1 nM.

B3: mAb 0170 (antibody, human IgG4 S228P, kappa, V domains shown)
VH: B1 VH with Q104I
VL: B1 VL
notes: Final humanised antibody from hybridoma 14F113 with LC M4L back-mutation and HC CDR3 Q98I (Kabat); also called 14F113/14F69 hz variant LC Q98I
As for B3, the Kd came to 3 nM in assay [2] and 3.6 nM in assay [1]. The binding result in assay [3] is given as “binds”.

B4: mAb 0048 (antibody, V domains shown)
VH: EVQLVESGGGLVQPKGSLKLSCAASGFTFNTYAMHWVRQAPGKGLEWVARIRTKSNNYATYYVDSVKDRITISRDDSQSMLYLQMNNLKTEDTAMYYCVRDMGIRRQFAYWGQGTLVTVSA
VL: DIVLTQSPASLAVSLGQRATISCRASESVDSFGISFMHWYQQSPGQPPKLLIYRASNLESGIPARFSGSGSRTDFTLTINPVEADDVATYYCQQSNEDPYTFGGGTKLEIKR
notes: also called 14F11A1B1; 14F11
On to B4, for which the binding result in assay [4] was “binds”. For the same molecule, the Kd in assay [1] was 1.2 nM.

B5: mAb 0068 (antibody, V domains shown)
VH: B4 VH
VL: B4 VL
notes: Recombinant; also called 14F128/14F11 (recombinant)
B5 yielded a Kd in assay [1] of 12 nM.

B6: mAb 0059 (antibody, IgG1, V domains shown)
VH: B4 VH with A23G, G26D, K43M, G44A, N56S, V63A, I70F, S79N, I104Q
VL: B4 VL with S31T, G33D, I34Y, M37L, S43K, K111E
notes: Recombinant; also called 14F113/14F69; 14F113A1B1C1 (recombinant)
Regarding B6, in assay [1], the Kd was found to be 0.67 nM.

B7: mAb 0067 (antibody, V domains shown)
VH: B4 VH
VL: B4 VL
notes: also called 14F11A1B1 (recombinant)
Take B7: the Kd in assay [1] was 4.7 nM.

B8: mAb 0054 (antibody, V domains shown)
VH: B4 VH
VL: B4 VL
notes: Hybridoma antibody 14F128A1; also called 14F128A1; 14F128
B8: in assay [4], the binding result was “binds”.

B9: mAb 0044 (antibody, IgG2a, V domains shown)
VH: B4 VH with V5E, A23G, G26D, K43M, G44A, N56S, V63A, I70F, S79N, I104Q
VL: B4 VL with S31T, G33D, I34Y, M37L, S43K, K111E
notes: Hybridoma antibody; also called 14F69A1; 14F69
Turning to B9, in assay [5], the binding result is “binds”.
